± gives the standard deviation of the averaged measurements.
These sequences were tested on Saccharomyces cerevisiae (assay: protein stability index of tFT-peptide fusion (C-terminal peptide) (PSI (0-1 scale)); higher = more stable (slower turnover)). Settings: genetic background: das1 deletion; temperature: 30 C.
Procedure: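 MPS profiling in S. cerevisiae of the yeast C-terminome library: the last 12 aa of each annotated ORF are fused to the C-terminus of a sfGFP-mCherry timer, after a GGGS linker. Cells are FACS-sorted into 8 mCherry/sfGFP bins and deep-sequenced. PSI runs from 0 (unstable) to 1 (stable); wild type and das1Δ backgrounds, two technical replicates each.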

For SPPEEESQHGDV [SHB17 C-terminal 12 aa], which protein stability index is on record?
Its protein stability index is 0.696 ± 0.022.

Which protein stability index does the source give for SQQNNNGNQNRY [RNQ1 C-terminal 12 aa] here?
Its protein stability index is 0.7168 ± 0.002.

Which protein stability index does the source give for SRSSIKNIVKPK [MRX15 C-terminal 12 aa] here?
The protein stability index was 0.689 ± 0.048.

SSAASSQVPAST [PTK1 C-terminal 12 aa] was tested. Which protein stability index did it give?
Its protein stability index is 0.694 ± 0.025.

Which protein stability index does the source give for SSDRSAAEKRNT [TYR1 C-terminal 12 aa] here?
The protein stability index was 0.699 ± 0.029.

For SSEEGYYIAGSI [IRC23 C-terminal 12 aa], which protein stability index is on record?
Its protein stability index is 0.8201 ± 0.0072.

Which protein stability index does the source give for SSGCRRLMVGYN [ERC1 C-terminal 12 aa] here?
The protein stability index was 0.6979 ± 0.0017.

With SSKKNNKFRRIR [CST9 C-terminal 12 aa] as the sequence, how does the protein stability index read?
Its protein stability index is 0.685 ± 0.019.

Which protein stability index does the source give for SSVKKKLYPKSK [RIM11 C-terminal 12 aa] here?
The protein stability index was 0.704 ± 0.015.

Which protein stability index does the source give for STDETPDNENKQ [SGT2 C-terminal 12 aa] here?
The protein stability index was 0.6998 ± 0.0031.

STDQLPELSFEV [TVP38 C-terminal 12 aa] was tested. Which protein stability index did it give?
The protein stability index was 0.699 ± 0.013.

STFTLNLEDVSK [ECM12 C-terminal 12 aa] was tested. Which protein stability index did it give?
Its protein stability index is 0.711 ± 0.0086.

Which protein stability index does the source give for STSCDVIQSRNA [MET22 C-terminal 12 aa] here?
Its protein stability index is 0.71 ± 0.03.

With SVLSGSAEFVFY [NCA3 C-terminal 12 aa] as the sequence, how does the protein stability index read?
The protein stability index was 0.7188 ± 0.0024.

SVLVCFLLRRAS [YJR087W C-terminal 12 aa] was tested. Which protein stability index did it give?
The protein stability index was 0.506 ± 0.02.

Which protein stability index does the source give for SVLYAIDFSAAF [EMA35 C-terminal 12 aa] here?
The protein stability index was 0.717 ± 0.012.

How did the protein stability index turn out when SVPKPSQARFSV [UTR1 C-terminal 12 aa] was run?
Its protein stability index is 0.684 ± 0.025.

SYKDTKRWMFKK [PSF3 C-terminal 12 aa] was tested. Which protein stability index did it give?
Its protein stability index is 0.724 ± 0.057.

Which protein stability index does the source give for SYLKGYIGCKIS [YPR092W C-terminal 12 aa] here?
The protein stability index was 0.745 ± 0.042.

How did the protein stability index turn out when “TAFGISSCRDLA [YLR163W-A C-terminal 12 aa]” was run?
Its protein stability index is 0.707 ± 0.016.

For TARPFPAPNIAA [YLR349W C-terminal 12 aa], which protein stability index is on record?
Its protein stability index is 0.728 ± 0.029.

For TASQLLEVQSKS [YGL039W C-terminal 12 aa], which protein stability index is on record?
The protein stability index was 0.68 ± 0.023.

TDCGLETEEIDI [RAD14 C-terminal 12 aa] was tested. Which protein stability index did it give?
Its protein stability index is 0.663 ± 0.025.

How did the protein stability index turn out when TDDNNIQTILLK [YIG1 C-terminal 12 aa] was run?
The protein stability index was 0.679 ± 0.012.

For TEFEKIHRNTFN [REX4 C-terminal 12 aa], which protein stability index is on record?
The protein stability index was 0.706 ± 0.012.

For TEIDESFEMTDF [KEX1 C-terminal 12 aa], which protein stability index is on record?
The protein stability index was 0.723 ± 0.021.

How did the protein stability index turn out when TGFFGKLKKLFK [CRP1 C-terminal 12 aa] was run?
The protein stability index was 0.762 ± 0.0086.

With TGFKDKFLDALL [PUT4 C-terminal 12 aa] as the sequence, how does the protein stability index read?
Its protein stability index is 0.689 ± 0.014.

Which protein stability index does the source give for TGLAGEGDTLVT [TAG1 C-terminal 12 aa] here?
Its protein stability index is 0.694 ± 0.007.

Which protein stability index does the source give for THLQQVAVSGQA [SEC23 C-terminal 12 aa] here?
The protein stability index was 0.572 ± 0.0092.

With THMKPWYRRWFW [INA17 C-terminal 12 aa] as the sequence, how does the protein stability index read?
The protein stability index was 0.742 ± 0.012.

Which protein stability index does the source give for TIGWLQESLAGI [HOT1 C-terminal 12 aa] here?
Its protein stability index is 0.706 ± 0.0076.

For TIISKGYAKIRD [TAF4 C-terminal 12 aa], which protein stability index is on record?
Its protein stability index is 0.68 ± 0.022.

How did the protein stability index turn out when TIKKGTTLEPIA [GCD11 C-terminal 12 aa] was run?
Its protein stability index is 0.6896 ± 0.0033.

TILHQQVNSKLH [YHR180W C-terminal 12 aa] was tested. Which protein stability index did it give?
Its protein stability index is 0.7181 ± 0.00078.

Which protein stability index does the source give for TILLFYPPLLKR [YDR544C C-terminal 12 aa] here?
The protein stability index was 0.627 ± 0.0074.

For TIPAAKRTKPSA [LYS20 C-terminal 12 aa], which protein stability index is on record?
The protein stability index was 0.69801 ± 0.00025.

With TKCSLKNSISLT [VAB2 C-terminal 12 aa] as the sequence, how does the protein stability index read?
The protein stability index was 0.677 ± 0.012.

TKEAKRRAMKKK [UME6 C-terminal 12 aa] was tested. Which protein stability index did it give?
The protein stability index was 0.706 ± 0.028.

For TKKANILDPDYL [FLC1 C-terminal 12 aa], which protein stability index is on record?
Its protein stability index is 0.685 ± 0.023.

With TKLGEQRHLCTD [ESL2 C-terminal 12 aa] as the sequence, how does the protein stability index read?
Its protein stability index is 0.698 ± 0.019.

With TKPNNGLNITNY [MTL1 C-terminal 12 aa] as the sequence, how does the protein stability index read?
Its protein stability index is 0.689 ± 0.019.

For TKSIFPSVNPSA [GPB2 C-terminal 12 aa], which protein stability index is on record?
The protein stability index was 0.694 ± 0.02.

“TLDRASNCWRGT [YBL006W-A C-terminal 12 aa]” was tested. Which protein stability index did it give?
The protein stability index was 0.709 ± 0.016.

TLHDDRESKSED [CMK2 C-terminal 12 aa] was tested. Which protein stability index did it give?
Its protein stability index is 0.6829 ± 0.0059.

Which protein stability index does the source give for TLIAAGIIRTGR [STI1 C-terminal 12 aa] here?
The protein stability index was 0.727 ± 0.025.

With TLKSTSSTNSPD [SMP1 C-terminal 12 aa] as the sequence, how does the protein stability index read?
The protein stability index was 0.703 ± 0.011.

With TLVFDVELLKVN [FPR1 C-terminal 12 aa] as the sequence, how does the protein stability index read?
The protein stability index was 0.6084 ± 0.0029.

How did the protein stability index turn out when TMNCNNADDMLF [YGR190C C-terminal 12 aa] was run?
Its protein stability index is 0.6995 ± 0.004.

TNVGLKLIAIAK [PPM2 C-terminal 12 aa] was tested. Which protein stability index did it give?
Its protein stability index is 0.655 ± 0.034.

Which protein stability index does the source give for TNVQANSYRKVP [SDP1 C-terminal 12 aa] here?
The protein stability index was 0.6856 ± 0.0029.

With TPGGGGFGQYKD [OXP1 C-terminal 12 aa] as the sequence, how does the protein stability index read?
The protein stability index was 0.7088 ± 0.00061.

TPLGPKPDIRPL [ECM4 C-terminal 12 aa] was tested. Which protein stability index did it give?
Its protein stability index is 0.727 ± 0.03.

Which protein stability index does the source give for TPSKEINFDDDF [RNR4 C-terminal 12 aa] here?
The protein stability index was 0.72 ± 0.011.

For TQLRYTSRGLYR [ECM30 C-terminal 12 aa], which protein stability index is on record?
Its protein stability index is 0.699 ± 0.018.

How did the protein stability index turn out when TQSGDDYTIRLT [APM1 C-terminal 12 aa] was run?
The protein stability index was 0.703 ± 0.015.

For TRPPCSPIAGYA [YOR345C C-terminal 12 aa], which protein stability index is on record?
The protein stability index was 0.608 ± 0.017.

With “TSCNLNSSVVRS [YOR186C-A C-terminal 12 aa]” as the sequence, how does the protein stability index read?
The protein stability index was 0.708 ± 0.035.

Which protein stability index does the source give for TSPKESFFKEVI [LPX2 C-terminal 12 aa] here?
The protein stability index was 0.715 ± 0.03.

For TTPTLPTFRTVA [FKS3 C-terminal 12 aa], which protein stability index is on record?
Its protein stability index is 0.686 ± 0.018.

With TTTGDKKSEEKQ [TCB2 C-terminal 12 aa] as the sequence, how does the protein stability index read?
Its protein stability index is 0.685 ± 0.027.

For TYFSFHILFHNL [YOR309C C-terminal 12 aa], which protein stability index is on record?
The protein stability index was 0.614 ± 0.0097.

How did the protein stability index turn out when TYQLIEKNRNSK [BLS1 C-terminal 12 aa] was run?
The protein stability index was 0.692 ± 0.019.

VAAGVFIEHDEL [YOS9 C-terminal 12 aa] was tested. Which protein stability index did it give?
Its protein stability index is 0.723 ± 0.0098.

VASSTEQLLQEM [DYN1 C-terminal 12 aa] was tested. Which protein stability index did it give?
The protein stability index was 0.67372 ± 0.00052.

With VATADIKNEDKN [BNA2 C-terminal 12 aa] as the sequence, how does the protein stability index read?
The protein stability index was 0.671 ± 0.021.

Which protein stability index does the source give for VDAKIKKQMNRH [YJR124C C-terminal 12 aa] here?
Its protein stability index is 0.694 ± 0.011.

VDYKTEPLQPLI [RGI2 C-terminal 12 aa] was tested. Which protein stability index did it give?
Its protein stability index is 0.7 ± 0.022.

How did the protein stability index turn out when VEGKNAAASGSA [LEU4 C-terminal 12 aa] was run?
Its protein stability index is 0.7086 ± 0.0054.

How did the protein stability index turn out when VEKDLVSVGSTW [NAR1 C-terminal 12 aa] was run?
Its protein stability index is 0.676 ± 0.0024.

For VEKVKKFVEENN [YML108W C-terminal 12 aa], which protein stability index is on record?
Its protein stability index is 0.678 ± 0.007.

How did the protein stability index turn out when VELYENQSHMQN [CDC9 C-terminal 12 aa] was run?
The protein stability index was 0.701 ± 0.01.

Which protein stability index does the source give for VEVLENLQSVLK [ATP16 C-terminal 12 aa] here?
The protein stability index was 0.68 ± 0.013.

With VGGIDYIKEFLS [CDA2 C-terminal 12 aa] as the sequence, how does the protein stability index read?
The protein stability index was 0.7012 ± 0.0019.

How did the protein stability index turn out when VGLLTAIIMSIM [PST1 C-terminal 12 aa] was run?
The protein stability index was 0.576 ± 0.011.

How did the protein stability index turn out when VGVERLLNDRFR [ARP4 C-terminal 12 aa] was run?
The protein stability index was 0.6944 ± 0.0026.

Which protein stability index does the source give for VKKSNWSNYFKS [PCL2 C-terminal 12 aa] here?
Its protein stability index is 0.6868 ± 0.0023.

For “VKKYSMKKKKKR [YDR320W-B C-terminal 12 aa]”, which protein stability index is on record?
Its protein stability index is 0.671 ± 0.014.

How did the protein stability index turn out when VKNWSKSILGFN [MSC1 C-terminal 12 aa] was run?
Its protein stability index is 0.7095 ± 0.004.

With VLGDCQHVTSLL [HST4 C-terminal 12 aa] as the sequence, how does the protein stability index read?
Its protein stability index is 0.697 ± 0.015.

VLREEVKKEEEN [KRS1 C-terminal 12 aa] was tested. Which protein stability index did it give?
The protein stability index was 0.6913 ± 0.006.

Which protein stability index does the source give for VLVFSWRHIFCF [YJL120W C-terminal 12 aa] here?
The protein stability index was 0.467 ± 0.026.

From the supplement of paper PMC10724198
